Earlier results on 1 substance are cited in article PMC6978450.

The target in series [1] is IL-13Rα1 (Mus musculus) (UniProt O09030).
The target in series [2] is IL-13Rα2 (Mus musculus) (UniProt O88786).

pKd: −log10 of the molar value.

UniProt O88786, sequence (O88786 22-334): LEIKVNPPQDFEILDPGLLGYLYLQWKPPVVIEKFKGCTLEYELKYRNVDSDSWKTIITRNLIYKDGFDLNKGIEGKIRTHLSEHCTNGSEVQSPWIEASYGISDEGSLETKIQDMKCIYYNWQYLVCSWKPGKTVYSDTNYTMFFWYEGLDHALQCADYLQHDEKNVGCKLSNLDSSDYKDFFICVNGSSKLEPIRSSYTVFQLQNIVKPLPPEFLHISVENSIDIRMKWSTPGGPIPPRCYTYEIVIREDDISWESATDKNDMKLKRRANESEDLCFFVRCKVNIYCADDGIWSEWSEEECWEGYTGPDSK
UniProt O09030, sequence (O09030 26-340): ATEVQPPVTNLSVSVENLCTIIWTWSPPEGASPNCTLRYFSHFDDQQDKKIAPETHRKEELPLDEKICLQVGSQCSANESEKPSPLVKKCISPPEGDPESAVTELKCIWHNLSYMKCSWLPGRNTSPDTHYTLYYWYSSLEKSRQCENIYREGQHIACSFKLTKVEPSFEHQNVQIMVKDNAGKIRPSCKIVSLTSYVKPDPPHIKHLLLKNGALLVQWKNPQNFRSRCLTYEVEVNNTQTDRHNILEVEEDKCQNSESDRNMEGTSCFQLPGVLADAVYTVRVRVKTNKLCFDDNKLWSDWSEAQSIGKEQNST

With IL-13 (from UniProt P20109), the values for the pKd in series [1] and in series [2] were 7.52 and 9.36, respectively.
